In general, stoichiometry N refers to a count of units in the complex or per binding partner.

In this assay the target is SARS-CoV-2 main protease M^pro-C145A (SARS-CoV-2). The experiment in a line: cryo-EM structure.

“SARS-CoV-2 main protease M^pro-C145A (enzyme)”: the stoichiometry N came to 2.

The record behind these values is PMC10084705.
